T1: Adiponectin receptor 1 (ADIPOR1), endogenous in iPSC-derived RPE (human (endogenous in iPSC-derived RPE)) (UniProt Q96A54)
T1 sequence: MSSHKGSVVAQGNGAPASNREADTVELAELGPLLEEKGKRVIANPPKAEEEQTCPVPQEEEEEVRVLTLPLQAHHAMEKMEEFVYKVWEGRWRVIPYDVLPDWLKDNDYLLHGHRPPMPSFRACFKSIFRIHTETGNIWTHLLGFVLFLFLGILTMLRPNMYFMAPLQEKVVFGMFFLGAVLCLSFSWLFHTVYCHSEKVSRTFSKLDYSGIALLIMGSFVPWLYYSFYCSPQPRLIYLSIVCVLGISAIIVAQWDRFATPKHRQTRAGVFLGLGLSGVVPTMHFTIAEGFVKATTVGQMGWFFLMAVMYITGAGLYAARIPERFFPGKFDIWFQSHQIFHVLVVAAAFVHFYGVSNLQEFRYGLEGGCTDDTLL


Target: T1, Adiponectin receptor 1 (ADIPOR1), endogenous in iPSC-derived RPE (human (endogenous in iPSC-derived RPE))

Row | pAMPK (pT172) levels by ELISA in healthy-iRPE in serum-deprived medium, 0.2 µg/mL gCTRP5 for 30 min [% decrease] | pAMPK (pT172) levels by ELISA in healthy-iRPE in serum-free medium, recombinant full-length CTRP5 at 0.2, 2 and 25 µg/mL [% reduction] | Molecule
1 | 20 | – | recombinant CTRP5 globular domain (domain or fragment)
2 | – | 50 | recombinant CTRP5 full length (ligand) SPPLDDNKIPSLCPGHPGLPGTPGHHGSQGLPGRDGRDGRDGAPGAPGEKGEGGRPGLPGPRGDPGPRGEAGPAGPTGPAGECSVPPRSAFSAKRSESRVPPPSDAPLPFDRVLVNEQGHYDAVTGKFTCQVPGVYYFAVHATVYRASLQFDLVKNGESIASFFQFFGGWPKPASLSGGAMVRLEPEDQVWVQVGVGDYIGIYASIKTDSTFSGFLVYSDWHSSPVFA

Source: publication PMC8660775
